Experiment: label from the status in PepcDB records

Sequence | protein production
METKGTGMTVNTVDVSAGRAQQVLREGWAAQRAGALTTSWMLHGRPGVGKTEIVRQLAAEQGARFYDLRLTTIESQDLRGLPYYDHETKKTQWYRPEDLPDDPDRPSLLFLDELTAAPPHLHPAVYGLLLERRVGPHILPDNVFLVAAGNMVEDGAVAYEMGTALSDRLIHLQVRATASDWLESYAVPRTLHPAVLAFIRMRPDLLETTAEALDRGLMISTTPRSWDRVSRIMGAVQDRALRRIMVAGTVGEAVAAEFMLVADDIEASVSVERLLNAAPHERIMLYPESMHGLHALIYGLVGALGPTTAVPVIDVMAGIRTLDVHRSDASFARMPLAELCTHGFEMAIRRGLEQGLAEDFLGHPAYAAYASERQAMGLELEHHHHHH | failed
MMALTMDFSTQLLEHQVTAILLLDDQRQIHYANPAAEQLFSQSAQRMAQHAFDDLFHSPQFDLSTLMLPLNTGQSVTDSDVRIMIDEQPLYIELTSSPVAINKSLYLLVEIRQIE | failed
MTNVRVIKPALAALVAAAACVGGLAFSSAQPAQADTYSDLINAQNQHAASVQREAELKQQLAGASQDLANKVLELDDLTNNKIVAAQAKVTQANEDAATAQDEADAASGRLSAAQKDKETLEEQIKQTGKDYDDAHAAVAQLARDEMHGSNASDVMSVVTGATSTQDFVNSMQSRDALSRNEANAASSAATSLSTSKNRGERLAAIEKQIAVLKTQSDEKAASAQTAAETAQSERDALDKLRQEGETRRNELSSMVDSLDSQSAKQAAQTVLIASQVDSYNRQFQKEQQDAANRVDTGNQGGTPSTPVTPAPAPAPAPAPAPAPAPAPAPSVGGQGTSNGDYGNAYAAGQCTYWAYERRRQMGIGTPSYLGNGGFWWRSAPAYGLRVDHTPQVGAALSFLPGQDGADGTYGHVAVVEAVYGDGTFQISEMNWGGPWNMHYRTLTNLGQYWFVH | failed
MTKAMTAHDYLPLIEKIRKRISSWTGRFLSYCGRLQLIKSVLMSITNFWSSAFRLPGNCMKEIERLCSAFLWSGPDLKTHNAKIAWSKVCLPMCEGGLGLRPLKEINTVCGLKLIWRLLASQTSLWGQWVQTYLIRRNNFWAIKASSYQGSWMWRKLLTLRDVARSFHKKEIHNGRNTSFWYDHWSSMGTLVDVLGARGCIDLGITTTTNMENVFTTRRSRKHRGDLLVRIEAEIEAAKTRHQPDIEDIDLWKPSTGYKKTFSTRETWKLIRMAEPVCEWAKGVWFPKPHQNLLSLLGWVCTIVFQQGTECKSGTAKLTLLAFSAKTLWKQEITYSSTVTTPIKFGKL | failed
MPDIDLHALSRTVLWATFALTFLFGAILQRTHFCTMGAVSDAVNIGDWSRLRMWALAIGVAMIGTGILGWAGWIDPAKTIYAAGRLQWLSALVGGLMFGFGMVLGSGCGSKTLVRIGGGNLKSVVVFVFLGLSAYMTLKGVFGVVRVATVDAVAIALPTTQDLPSVLGHALSADVRMLRLALALAIGGALAVWALAGRDFRTPDNLLGGIGVGLVIVAMWYVSGHLGYVAEDPDTLQEAFVATNSGRMEALSFVAPVSYTLEWLMFFSDTSKVLTVGIVSVLGVIAGSAAVALASGTFRWEGFANAEDTGNHIVGGILMGAGGVTALGCTIGQGLSGVSTLAIGSFVALAGILAGAVLAFRYQMWRLERGG | failed
MLQGKVSVIVPAYNAARLLERCVRSITGQTYPALEVIVVDDGSKDDTGKIADQLAAEDSRIRVVHKTNGGVSAARNDALKLVEGEWITFVDSDDYLEPDFLRSLLDGEVADLVIGGYHTVGANEIPSANYPTDTAHSPEAIKRALEARLTDMTFLCPWGKLFRTSLVRSLRLIFNTEMKVGEDVVFVWSYLAHCSSLAFKQGQGYDYYTEPGADFKYALDETVSLQTIERILGVLDGLKRNFGMDTEHARCHVLNYYIWLFKLYVNRNYLLRDLARMKNFFYYPLILDYYKTYRRTSKDKLLVYLLLKLRLSGVLYLMIKLYYLEHHHHHH | not failed
MGWCVMAVLVDSETRVLVQGITGREGSFHAKAMLEYGTKVVAGVTPGKGGSEVHGVPVYDSVKEALAEHPEINTSIVFVPAPFAPDAVYEAVDAGIRLVVVITEGIPVHDTMRFVNYARQKGATIIGPNCPGAITPGQAKVGIMPGHIFKEGGVAVVSRSGTLTYEISYMLTRQGIGQSTVIGIGGDPIVGLSFTEALKLFQEDPQTEALVLIGEIGGDMEERAAEMIKKGEFTKPVIAYIAGRTAPPEKRMGHAGAIIMMGTGTYEGKVKALREAGVEVAETPFEVPELVRKALRR | not failed
MNGARKWFFPDGYIPNGKRGYLVSHESLCIMNTGDETAKIRITFLFEDSKPVVHEVEISPMKSLHLRLDKLGIPKCKPYSIMAESNVPVVMQLSRLDVGKNHYTLMTTIGYWEE | not failed
MSKTDTAAVEATEENSNETTSDAATSSSGEKEAEFDNKIEADRSRRFDFLLKQTEIFTHFMTNSAKSPTKPKGRPKKIKDKDKEKDVADHRHRKTEQEEDEELLAEDSATKEIFRFDASPAYIKSGEMRDYQIRGLNWMISLYENGINGILADEMGLG | failed
MPGSPRGLCTRSRKSTMSTHGTIGVLGAGEVGQAVADKAVRHGHEVLIGNSRGPRTLEALVGRLGPKARAVTAEEAVQPELVFLSVPFFAVPELTGLTTWAGKIVVDTTNQFAAANPWRGRYDVGDLTGSEWVARHLPGARLVKALNTLFATFIAADPRHAEGRQVAFYAGDDADAKTAVAGLLDEFGFAALDLGGLRDGGRLMQLDGALSAKHLLLQDVG | failed
MDRRRFLVGLLGLGLARGQGLRVEEVVGGLEVPWALAFLPDGGMLIAERPGRIRLFREGRLSTYAELSVYHRGESGLLGLALHPRFPQEPYVYAYRTVAEGGLRNQVVRLRHLGERGVLDRVVLDGIPARPHGLHSGGRIAFGPDGMLYVTTGEVYERELAQDLASLGGKILRLTPEGEPAPGNPFLGRRGARPEVYSLGHRNPQGLAWHPKTGELFSSEHGPSGEQGYGHDEVNLIVPGGNYGWPRVVGRGNDPRYRDPLYFWPQGFPPGNLAFFRGDLYVAGLRGQALLRLVLEGERGRWRVLRVETALSGFGRLREVQVGPDGALYVTTSNRDGRGQVRPGDDRVLRLL | not failed
MEHKKALFCIFAIIHLFFWIIFSSLNHFKLDTFLSYEIAFFSVLLIIFASYLNYKKVIIKKSKNYEKDFNFISSLFIKKKQNLSKIIHFKVLKDDLKPNVKEKIHFFAMFFTLFKLMAYVVLVAGFLFLHRQDKLDIFAYICGISSLLVCVFIFILYIKKYESKKNY | failed
PEQLRSTVRIGTIDSIVQAWLPRFIERVRELYPGLTLDLNVDTSRGIAREIVERKIDLALLMGPVLEAGLRNVDLGSMDCAWVAAPGFGLGGRRIGLADLVDLPILTFSRNSDPHVWLMRQFEELRLPQPAISNSNSLSAML | failed
MQLHELVNTLGQDLQRRYGEKVHKLTLHGGFSCPNRDGTIGRGGCTFCNVASFADEEVQIKSIHEQLKDRAGEIHRAKKYLAYFQAYTSTYAEVQVLKNMYEEALKAADIVGLCVGTRPDCVPDSVLDLLSDYVNQGYEIWLELGLQTANNDTLKRINRGHDFECYAEITQRARALGIKVCTHLIVGLPKETRDDNIETLQKVLAVGTDGIKLHGLHIVEGSTMAKAWRAGRLEAPGLEEYVAIASEMIRMTPADVVFHRVSSAARRPTLLSPLWCENRWLAMTEIGRALNKDGAQGSLIGKPFIYTKPELKADCSINN | failed
MKKYFLKCGYFLVCFCLPLIVFANPKTDNERFFIRLSQAPLAQTLEQLAFQQDVNLVIGDILENKISLKLNNIDMPRLLQIIAKSKHLTLNKDDGIYYLNGSQSGKGQVAGNLTTNEPHLVSHTVKLHFAKASELMKSLTTGSGSLLSPAGSITFDDRSNLLVIQDEPRSVQNIKKLIAEMDKPIEQIAIEARIVTITDESLKELGVRWGIFNPTENARRVAGSLTGNSFENIADNLNVNFATTTTPAGSIALQVAKINGRLLDLELSALERENNVEIIASPRLLTTNKKSASIKQGTEIPYIVSNTRNDTQSVEFREAVLGLEVTPHISKDNNILLDLLVSQNSPGSRVAYGQNEVVSIDKQEINTQVFAKDGETIVLGGVFHDTITKSEDKVPLLGDIPVIKRLFSKESERHQKRELVIFVTPHILKAGETLEALKQKSEGKKLEHHHHHH | failed
MLFIKPADLREIVTFPLFSDLVQCGFPSPAADYVEQRIDLNQLLIQHPSATYFVKASGDSMIDGGISDGDLLIVDSAITASHGDIVIAAVDGEFTVKKLQLRPTVQLIPMNSAYSPITISSEDTLDVFGVVIHVVKAMR | failed
